For the experiment, the target named is SARS-COV-2 Spike Protein Native RBD (UniProt P0DTC2 333-526). Put plainly: BLI. On the technique in general: In BLI a coated tip is dipped into the sample, and binding shifts an interference pattern.

B1: REGN10933 IgG (antibody, V domains shown)
VH: QVQLVESGGGLVKPGGSLRLSCAASGFTFSDYYMSWIRQAPGKGLEWVSYITYSGSTIYYADSVKGRFTISRDNAKSSLYLQMNSLRAEDTAVYYCARDRGTTMVPFDYWGQGTLVTVSS
VL: DIQMTQSPSSLSASVGDRVTITCQASQDITNYLNWYQQKPGKAPKLLIYAASNLETGVPSRFSGSGSGTDFTFTISGLQPEDIATYYCQQYDNLPLTFGGGTKVEIKR
In turn, B1 gave a Kd of 1.8 nM.

Usually Kd stands for a measure of binding affinity in units of concentration. Read a high Kd as weaker binding.

The values above are taken from patent publication US20250281600A1 (published 2025).
